From patent US20250298032A1 (INSTITUTE FOR RESEARCH IN BIOMEDICINE, published 2025)

Columns and labels:
CCL2 N-loop peptide [1] = target: T1, CCL2 N-loop peptide (human, biotin-Ahx at the N-terminus; amidated at the C-terminus); test: ELISA, biotinylated CCL2 N-loop peptide on neutravidin plate, OD450 nm
T1 peptide: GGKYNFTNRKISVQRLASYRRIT
Protocol: (§1) To evaluate the antibodies' binding to chemokine peptides, 96-well plates (ThermoFisher, 442404) were coated with 50 μl per well of a 2 μg/ml Neutravidin (Life Technologies, 31000) solution in PBS, overnight at room temperature. Plates were washed 4 times with washing buffer (PBS+0.05% Tween-20 [Sigma-Aldrich]) and incubated with 50 μl per well of a 50 nM biotinylated peptide solution in PBS for 1 h at room temperature. After washing 4 times with washing buffer, plates were incubated with 200 μl per well of blocking buffer (PBS+2% BSA+0.05% Tween-20) for 2 h at room temperature. Plates were then washed 4 times with washing buffer, and serial dilutions of monoclonal antibodies or plasma were added in PBS +0.05% Tween-20 and incubated for 1 h at room temperature. To screen for the presence of anti-chemokine IgGs, plasma samples were assayed (unless otherwise stated) at 1:50 starting dilution followed by 3 fourfold serial dilutions (1:200, 1:800, 1:3200). Monoclonal antibodies were tested at 5 μg/ml starting concentration followed by 11 threefold serial dilutions. […] The developing reaction was stopped with 50 μl per well of a 1 M H₂SO₄ solution, and absorbance was measured at 450 nm with an ELISA microplate reader (BioTek) with Gen5 software. […]

CCL7 N-loop peptide [2] = target: T2, CCL7 N-loop peptide (human, biotin-Ahx at the N-terminus; amidated at the C-terminus); test: ELISA, biotinylated CCL7 N-loop peptide on neutravidin plate, OD450 nm
T2 peptide: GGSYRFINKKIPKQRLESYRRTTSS
Protocol: as §1

CCL11 N-loop peptide [3] = target: T3, CCL11 N-loop peptide (human, biotin-Ahx at the N-terminus; amidated at the C-terminus); test: ELISA, biotinylated CCL11 N-loop peptide on neutravidin plate, OD450 nm
T3 peptide: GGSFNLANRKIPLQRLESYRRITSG
Protocol: as §1

CCL13 N-loop peptide [4] = target: T4, CCL13 N-loop peptide (human, biotin-Ahx at the N-terminus; amidated at the C-terminus); test: ELISA, biotinylated CCL13 N-loop peptide on neutravidin plate, OD450 nm
T4 peptide: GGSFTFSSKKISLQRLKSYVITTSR
Protocol: as §1

CCL8 N-loop peptide = target: T5, CCL8 N-loop peptide (human, biotin-Ahx at the N-terminus; amidated at the C-terminus); test: ELISA, biotinylated CCL8 N-loop peptide on neutravidin plate, anti-human IgG-HRP, OD450 nm
T5 construct: Synthetic peptide (GenScript), captured on Neutravidin-coated ELISA plates
T5 peptide: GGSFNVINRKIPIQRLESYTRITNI
Protocol: (§2) To evaluate the antibodies' binding to chemokine peptides, 96-well plates (ThermoFisher, 442404) were coated with 50 μl per well of a 2 μg/ml Neutravidin (Life Technologies, 31000) solution in PBS, overnight at room temperature. Plates were washed 4 times with washing buffer (PBS+0.05% Tween-20 [Sigma-Aldrich]) and incubated with 50 μl per well of a 50 nM biotinylated peptide solution in PBS for 1 h at room temperature. After washing 4 times with washing buffer, plates were incubated with 200 μl per well of blocking buffer (PBS+2% BSA+0.05% Tween-20) for 2 h at room temperature. Plates were then washed 4 times with washing buffer, and serial dilutions of monoclonal antibodies or plasma were added in PBS +0.05% Tween-20 and incubated for 1 h at room temperature. To screen for the presence of anti-chemokine IgGs, plasma samples were assayed (unless otherwise stated) at 1:50 starting dilution followed by 3 fourfold serial dilutions (1:200, 1:800, 1:3200). Monoclonal antibodies were tested at 5 μg/ml starting concentration followed by 11 threefold serial dilutions. Plates were subsequently washed 4 times with washing buffer and incubated with anti-human IgG secondary antibody conjugated to horseradish peroxidase (HRP) (GE Healthcare, NA933) at a 1:5000 dilution in PBS+0.05% Tween-20. Finally, after washing 4 times with washing buffer, plates were developed by the addition of 50 μl per well of the HRP substrate TMB (ThermoFisher, 34021) for 9 min. The developing reaction was stopped with 50 μl per well of a 1 M H₂SO₄ solution, and absorbance was measured at 450 nm with an ELISA microplate reader (BioTek) with Gen5 software. A positive control (broadly reactive plasma from donor CLM70) and a negative control (uninfected participant) samples were included in each experiment. The Area Under the Curve (AUC) was obtained from two independent experiments and plotted with GraphPad Prism.

CXCL13 N-loop peptide = target: T6, CXCL13 N-loop peptide (human, biotin-Ahx at the N-terminus; amidated at the C-terminus); test: ELISA, biotinylated CXCL13 N-loop peptide on neutravidin plate, anti-human IgG-HRP, OD450 nm
T6 construct: Synthetic peptide, captured on Neutravidin-coated ELISA plates
T6 peptide: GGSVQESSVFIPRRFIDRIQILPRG
Protocol: as §2

CCL20 N-loop peptide = target: T7, CCL20 N-loop peptide (human, biotin-Ahx at the N-terminus; amidated at the C-terminus); test: ELISA, biotinylated CCL20 N-loop peptide on neutravidin plate, anti-human IgG-HRP, OD450 nm
T7 construct: Synthetic peptide, captured on Neutravidin-coated ELISA plates
T7 peptide: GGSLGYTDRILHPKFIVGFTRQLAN
Protocol: as §1

[5] = target: SARS-CoV-2 Spike (S) protein (SARS-CoV-2, UniProt P0DTC2 14-1208); test: ELISA on coated Spike protein (FIG. 2E)
Protocol: Plates were washed 4 times with washing buffer (PBS+0.05% Tween-20 [Sigma-Aldrich]) and incubated with 50 μl per well of a 50 nM biotinylated peptide solution in PBS for 1 h at room temperature. After washing 4 times with washing buffer, plates were incubated with 200 μl per well of blocking buffer (PBS+2% BSA+0.05% Tween-20) for 2 h at room temperature. Plates were then washed 4 times with washing buffer, and serial dilutions of monoclonal antibodies or plasma were added in PBS +0.05% Tween-20 and incubated for 1 h at room temperature. […] Monoclonal antibodies were tested at 5 μg/ml starting concentration followed by 11 threefold serial dilutions. Plates were subsequently washed 4 times with washing buffer and incubated with anti-human IgG secondary antibody conjugated to horseradish peroxidase (HRP) (GE Healthcare, NA933) at a 1:5000 dilution in PBS+0.05% Tween-20. […] The developing reaction was stopped with 50 μl per well of a 1 M H₂SO₄ solution, and absorbance was measured at 450 nm with an ELISA microplate reader (BioTek) with Gen5 software. […] The Area Under the Curve (AUC) was obtained from two independent experiments and plotted with GraphPad Prism.

CCL13 N-loop peptide [6] = target: T4, CCL13 N-loop peptide; test: ELISA on biotinylated N-loop peptide (FIG. 2D)
Protocol: as §2

CCL2 N-loop peptide [7] = target: T1, CCL2 N-loop peptide; test: ELISA on biotinylated N-loop peptide (FIG. 2D)
Protocol: as §2

CCL7 N-loop peptide [8] = target: T2, CCL7 N-loop peptide; test: ELISA on biotinylated N-loop peptide (FIG. 2D)
Protocol: as §2

CCL11 N-loop peptide [9] = target: T3, CCL11 N-loop peptide; test: ELISA on biotinylated N-loop peptide (FIG. 2D)
Protocol: as §2

Binder	binding result (CCL2 N-loop peptide [1])	binding result (CCL7 N-loop peptide [2])	binding result (CCL11 N-loop peptide [3])	binding result (CCL13 N-loop peptide [4])	EC50 (read off the curve) (CCL8 N-loop peptide) [ng/mL]	binding result [5]	binding result (CCL13 N-loop peptide [6])	binding result (CCL2 N-loop peptide [7])	binding result (CCL7 N-loop peptide [8])	binding result (CCL11 N-loop peptide [9])	also measured
aCCL8.001 (antibody, human IgG1, V domains shown, kappa (VK4-1); also called VH4-39/VK4-1 antibody; anti-CCL8 antibody) VH: QVQLQESGPGLVKPAETLSLTCTVSGDSVSSESYFWGWIRQSPRKGLEWLGAVWYNGDTYYNPSVGGRVTISMDTSMNEISLRLSSVTAADTAVYFCATEHCIDEICSPASDSWGQGTLVTVSS VL: DIVMTQSPDSLAVSLGERATINCKSSQSVFFSSNNENCLAWFQQKPGQPPKLLIHWASTRASGVPDRFSGSGSGTDFTLTISSLQAEDVAVYYCHQYLKAPRTFGQGTKVEIK	no binding (tested: 5000 ng/ml)	no binding (tested: 5000 ng/ml)	no binding (tested: 5000 ng/ml)	no binding (tested: 5000 ng/ml)	~10	–	–	–	–	–	–
aCXCL13.003 (antibody, V domains shown, also called anti-CXCL13 N-loop antibody) VH: QVQLQEWGAGLLKPSETLSLTCAVYGGSFSGYYWSWIRQPPGKGLEWIGEINHSGSTNYNPSLKSRVTISVDTSKNQFSLKLSSVTAADTAVYYCARAGRSYGDYGAFDIWGQGTMVTVSS VL: not shown	–	–	–	–	–	–	–	–	–	–	binding result (CXCL13 N-loop peptide): binds
aCCL20.001 (antibody, V domains shown, also called anti-CCL20 N-loop antibody) VH: QVQLVQSGAEVKKPGASVKISCKASGYTFTNHYMHWVRQAPGVGLEWMGIVNPSGGNTSYARNFQGRIIMTRDMSTRTIYMELGSLRSEDTAVYYCARDGSHYDDDGGYYGDAFDIWGQGTMVTVSS VL: not shown	–	–	–	–	–	–	–	–	–	–	EC50 (read off the curve) (CCL20 N-loop peptide): ~40 ng/mL
aCCL8.003 (antibody, human IgG1, V domains shown, also called VH4-39/VK4-1 antibody; anti-CCL8 antibody) VH: QLQLQESGPGLVKPSETLSLTCTVSGDSVSSSFYFWGWVRQPPGKGLEWIGSIYYTGDTYYKPSLKSRVTISMNTSKNQFSLRLSSVTAADTAVYYCATEFCTSGICHPASDSWGQGTLVTVSS VL: DIVMTQSPDSLAVSLGERATINCKSSQSVLLSANNKNCLAWFQQKPGQPPKLLIYWASTRESGVPDRFSGSGSGTDFTLTISSLQAEDVAIYYCQQYYKAPRTFGQGTKVEIK	–	–	–	–	~10	no binding	no binding (tested: 5 µg/ml starting concentration)	no binding (tested: 5 µg/ml starting concentration)	no binding (tested: 5 µg/ml starting concentration)	no binding (tested: 5 µg/ml starting concentration)	–
aCCL8.005 (antibody, human IgG1, V domains shown, also called VH4-39/VK4-1 antibody; anti-CCL8 antibody) VH: QLQLQESGPGLVKPSETLSLTCTVSGDSVSSSFYFWGWVRQPPGKGLEWIGGTYYTGDTYHNPSLKSRLTISMDTSKNQFSLRLSSVTAADTAVYYCATEFCINGICRPASDSWGQGTLVTVSS VL: DIVMTQSPDSLAVSLGERATINCKSSQSVLLSSNNKNCLAWFQQRPGQPPKLLIYWASTRESGVPDRFSGSGSGTDFTLTISSLQAEDVAIYYCQQYYKAPRTFGQGTKVEIK	no binding (tested: 5000 ng/ml)	no binding (tested: 5000 ng/ml)	no binding (tested: 5000 ng/ml)	no binding (tested: 5000 ng/ml)	~10	–	–	–	–	–	–
aCCL8.004 (antibody, human IgG1, V domains shown, also called VH4-39/VK4-1 antibody; anti-CCL8 antibody) VH: QVQLQESGPGLVKPAETLSLTCIVSGDSVSSPSYFWGWIRQPPGKGLEWIGATWFNGDTYYNPSLQSRVSISMDMSLNRIYLSLNSVTAADTAVYFCATEHCFDEICSPASDSWGQGTLVTVSS VL: DIVMTQSPDSLAVSLGERATISCMSSQSVFFSSNNENCLAWFQQKPGQPPKLLIYWASTRASGVPDRFSGSGSGTDFTLTISSLQAEDVAVYYCQQYLKAPRTFGQGTKVEIK	–	–	–	–	~10	no binding	no binding (tested: 5 µg/ml starting concentration)	no binding (tested: 5 µg/ml starting concentration)	no binding (tested: 5 µg/ml starting concentration)	no binding (tested: 5 µg/ml starting concentration)	–
